Source: patent US20230265184A1

B1: TRAF3 DN (382-568aa) (protein, UniProt Q13114 382-568, looked up, not shown: small tags and cut ends; large carriers)
chain: ESQLSRHDQMLSVHDIRLADMDLRFQVLETASYNGVLIWKIRDYKRRKQEAVMGKTLSLYSQPFYTGYFGYKMCARVYLNGDGMGKGTHLSLFFVIMRGEYDALLPWPFKQKVTLMLMDQGSSRRHLGDAFKPDPNSSSFKKPTGEMNIASGCPVFVAQTVLENGTYIKDDTIFIKVIVDTSDLPDP
B2: TRAF1 DN (184-417aa) (protein, UniProt Q13077 184-416, looked up, not shown: small tags and cut ends; large carriers)
chain: EKLLAELEGKLRVFENIVAVLNKEVEASHLALATSIHQSQLDRERILSLEQRVVELQQTLAQKDQALGKLEQSLRLMEEASFDGTFLWKITNVTRRCHESACGRTVSLFSPAFYTAKYGYKLCLRLYLNGDGTGKRTHLSLFIVIMRGEYDALLPWPFRNKVTFMLLDQNNREHAIDAFRPDLSSASFQRPQSETNVASGCPLFFPLSKLQSPKHAYVKDDTMFLKCIVETST
B3: TRAF2 DN (87-501aa) (protein, UniProt Q12933 87-501, looked up, not shown: small tags and cut ends; large carriers)
chain: SSSAFPDNAARREVESLPAVCPSDGCTWKGTLKEYESCHEGRCPLMLTECPACKGLVRLGEKERHLEHECPERSLSCRHCRAPCCGADVKAHHEVCPKFPLTCDGCGKKKIPREKFQDHVKTCGKCRVPCRFHAIGCLETVEGEKQQEHEVQWLREHLAMLLSSVLEAKPLLGDQSHAGSELLQRCESLEKKTATFENIVCVLNREVERVAMTAEACSRQHRLDQDKIEALSSKVQQLERSIGLKDLAMADLEQKVLEMEASTYDGVFIWKISDFARKRQEAVAGRIPAIFSPAFYTSRYGYKMCLRIYLNGDGTGRGTHLSLFFVVMKGPNDALLRWPFNQKVTLMLLDQNNREHVIDAFRPDVTSSSFQRPVNDMNIASGCPLFCPVSKMEAKNSYVRDDAIFIKAIVDLTGL

Target: m19-humBBz CAR (mouse; human) (UniProt P01731)
Assay: cell-based or functional assay

Row | Binder | NF-κB signaling in NF-κB/293/GFP-Luc reporter cells, GFP % | NF-κB signaling in NF-κB/293/GFP-Luc reporter cells, GFP MFI | NF-κB signaling in NF-κB/293/GFP-Luc reporter cells, GFP+%
1 | B1 | 30.8% | 6060 MFI | –
2 | B2 | 13.4% | 1690 MFI | –
3 | B3 | – | 14300 MFI | 63.5%
